Four substances from patent publication US20250313631A1 can be followed below.

Experiment [1] has as its target human VISTA expressed on cells (human) (UniProt Q9H7M9). The experiment is described as follows: flow cytometry, FITC-A; HEK293 VISTA O/E cells (unstained cells: MFI 0.12). A general note: A flow cytometer gives signals particle by particle.
For experiment [2], the target named is human FcγRIII (CD16a) (human) (UniProt P08637). The experiment is described as follows: ELISA, plate coated with human CD16a (FcγRIII), detection with HRP anti-human Fc antibody.
The target in experiment [3] is recombinant human VISTA (His-tagged) (human) (UniProt Q9H7M9). The experiment in a line: ELISA, plate coated with human VISTA. In general terms: An ELISA detects its analyte on a solid surface through an enzyme-linked reagent.
Experiment [4] has the same target. The experiment is described as follows: ELISA, plate coated with human VISTA; unit nM from the legend paragraph 699.
Experiment [5] deals with recombinant mouse VISTA (His-tagged) (mouse) (UniProt Q9D659). The experiment in a line: ELISA, plate coated with mouse VISTA; unit nM from the legend paragraph 697.
Experiment [6] has as its target recombinant human VISTA (His-tagged) (human) (UniProt Q9H7M9). The experiment is described as follows: ELISA, plate coated with human VISTA; unit nM from the legend paragraph 698.
In experiment [7] the target is recombinant mouse VISTA (His-tagged) (mouse) (UniProt Q9D659). The experiment in a line: ELISA, plate coated with mouse VISTA; unit nM from the legend paragraph 698.
In experiment [8] the target is recombinant rat VISTA (His-tagged) (rat). The experiment is described as follows: ELISA, plate coated with rat VISTA.
Experiment [9] deals with recombinant cynomolgus macaque VISTA (His-tagged) (cynomolgus macaque). The experiment in a line: ELISA, plate coated with cyno VISTA.
In experiment [10] the target is recombinant mouse VISTA (His-tagged) (mouse) (UniProt Q9D659). The experiment in a line: ELISA, plate coated with mouse VISTA; unit nM from the legend paragraph 699.
For experiment [11] the target is unchanged. The experiment in a line: ELISA, plate coated with mouse VISTA.
The target in experiment [12] is recombinant human VISTA (His-tagged) (human) (UniProt Q9H7M9). The experiment in a line: ELISA, plate coated with human VISTA; unit nM from the legend paragraph 697.
The next experiment concerns the target Fc-tagged VSIG-3 (UniProt Q5DX21). The experiment is described as follows: BLI, 100 nM Fc-tagged VSIG-3 on anti-human Fc biosensor, VISTA as analyte from 3000 nM. Background: BLI is a label-free optical method that tracks binding on a fibre tip over time.

Chain of recombinant mouse VISTA (His-tagged) (mouse) (Q9D659 33-191 limits assumed): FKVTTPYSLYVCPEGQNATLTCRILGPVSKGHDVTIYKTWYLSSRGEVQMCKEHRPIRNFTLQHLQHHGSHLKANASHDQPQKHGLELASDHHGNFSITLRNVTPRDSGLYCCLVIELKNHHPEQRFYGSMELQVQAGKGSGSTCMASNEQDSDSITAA
Chain of human FcγRIII (CD16a) (human) (P08637 17-208 limits assumed): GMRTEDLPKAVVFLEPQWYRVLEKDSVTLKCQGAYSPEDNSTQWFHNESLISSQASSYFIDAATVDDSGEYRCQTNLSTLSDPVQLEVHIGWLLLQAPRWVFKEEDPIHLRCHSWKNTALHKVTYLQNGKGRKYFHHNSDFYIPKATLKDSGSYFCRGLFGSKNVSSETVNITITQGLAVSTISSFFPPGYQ

Substance Isotype (antibody) had an MFI in experiment [1] of 0.06.

In turn, hIgG1 Isotype Control (antibody) came in with an EC50 (read off the curve) in experiment [2] of 1 nM.

Regarding Human isotype (antibody), the EC50 in [3] is above 33 nM; in experiment [4] it was 98.5 nM; in experiment [5], 77 nM; in experiment [6] it was above 200 nM; in [7] it was above 200 nM; in experiment [8], above 33 nM. Further, the half-maximal effective concentration (EC50) was above 33 nM in experiment [9], above 200 nM in [10], above 33 nM in [11] and 152 nM in experiment [12].

With “recombinant human VISTA (His-tagged) (from UniProt Q9H7M9 33-194) (receptor)”, the Kd with Fc-tagged VSIG-3 was 5280 nM.

By EC50 (read off the curve) is commonly meant the midpoint of the concentration-response curve. Lower therefore signals greater potency. One may read the EC50 as the midpoint of the concentration-response curve. The Kd is the constant that tells how readily two partners part at equilibrium. Low values mean tighter binding, high ones weaker binding.
